Target: heavy meromyosin-like fragment of myosin Va (MyoV-HMM), with its bound calmodulin (mouse | not stated) (UniProt Q99104)
Sequence (Q99104 1-1090): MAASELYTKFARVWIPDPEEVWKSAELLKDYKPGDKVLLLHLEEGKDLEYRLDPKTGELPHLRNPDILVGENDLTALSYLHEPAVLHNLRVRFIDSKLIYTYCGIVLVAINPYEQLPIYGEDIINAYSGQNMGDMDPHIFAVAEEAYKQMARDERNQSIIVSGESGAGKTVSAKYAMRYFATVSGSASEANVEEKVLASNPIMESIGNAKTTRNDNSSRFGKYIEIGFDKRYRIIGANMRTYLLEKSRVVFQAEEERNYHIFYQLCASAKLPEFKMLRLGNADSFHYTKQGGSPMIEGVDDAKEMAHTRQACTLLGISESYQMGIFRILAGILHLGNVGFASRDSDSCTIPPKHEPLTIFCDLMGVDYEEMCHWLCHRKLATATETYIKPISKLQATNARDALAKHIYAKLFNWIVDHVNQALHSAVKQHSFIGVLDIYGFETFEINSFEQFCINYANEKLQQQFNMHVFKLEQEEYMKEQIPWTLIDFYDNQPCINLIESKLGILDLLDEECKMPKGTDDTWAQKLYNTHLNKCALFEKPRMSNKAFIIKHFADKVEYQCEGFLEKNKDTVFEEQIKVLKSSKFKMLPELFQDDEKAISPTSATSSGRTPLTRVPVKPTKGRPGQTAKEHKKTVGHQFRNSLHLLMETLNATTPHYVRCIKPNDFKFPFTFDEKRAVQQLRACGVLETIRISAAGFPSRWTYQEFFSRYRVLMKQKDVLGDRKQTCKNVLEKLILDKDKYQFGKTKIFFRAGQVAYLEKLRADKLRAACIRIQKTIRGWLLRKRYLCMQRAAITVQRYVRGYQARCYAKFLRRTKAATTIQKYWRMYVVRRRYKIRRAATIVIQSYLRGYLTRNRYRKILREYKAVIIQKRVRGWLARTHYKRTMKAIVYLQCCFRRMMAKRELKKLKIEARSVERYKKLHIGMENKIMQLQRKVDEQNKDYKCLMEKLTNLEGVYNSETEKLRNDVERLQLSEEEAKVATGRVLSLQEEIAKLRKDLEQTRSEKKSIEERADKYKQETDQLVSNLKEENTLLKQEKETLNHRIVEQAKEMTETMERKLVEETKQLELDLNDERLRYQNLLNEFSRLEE

Substance: Alexa-Fluor-568-labelled calmodulin (from UniProt P62157 1-149) (natural protein)
- labelled calmodulins exchanged per MyoV-HMM: 3 per MyoV-HMM
